Data: patent publication US11912794B2, “Modulation of structured polypeptide specificity” (BicycleRD Limited, priority 2011, dated 2024)
Ends that are not written are not given here.

Target: T1, Biotinylated hPK (Homo sapiens, UniProt P03952)
T1 construct: IHPKA, from human plasma; purchased Innovative Research, Novi, MI, USA IHPKA; host or cells: human plasma
Assay: Phage selections, abundance of sequences in selection outputs
Assay type: binding
Settings: for Frequency (relative abundance in the total selection outputs): randomised WPAR motif at positions 2, 3, 4 & 5 within the 06-34-03 sequence
Method: Glycerol stocks of phage libraries were diluted to OD600=0.1 in 500 ml 2YT/chloramphenicol (30 μg/ml) cultures and phage were produced at 30° C. over night (15-16 hrs). Phage were purified and chemically modified as described in Heinis, et al., Nat Chem Biol 2009, 5 (7), 502-7 Biotinylated hPK (3 μg) (IHPKA, from human plasma, Innovative Research, Novi, MI, USA) was incubated with 50 μl pre-washed magnetic streptavidin beads (Dynal, M-280 from Invitrogen, Paisley, UK) for 10 minutes at RT. […] Blocked beads were then mixed with the blocked chemically modified phage and incubated for 30 minutes on a rotating wheel at RT. Beads were washed 8 times with washing buffer containing 0.1% Tween 20 and twice with washing buffer before incubation with 100 μl of 50 mM glycine, pH 2.2 for 5 minutes. Eluted phage were transferred to 50 μl of 1 M Tris-Cl, pH 8 for neutralization, incubated with 30 ml TG1 cells at OD600=0.4 for 90 minutes at 37° C. and the cells were plated on large 2YT/chloramphenicol plates. One or two additional rounds of panning were performed using the same procedures. In the second round of selection, neutravidin-coated magnetic beads were used to prevent the enrichment of streptavidin-specific peptides. The neutravidin beads were prepared by reacting 0.8 mg neutravidin (Pierce, Rockford, IL, USA) with 0.5 ml tosyl-activated magnetic beads (Dynal, M-280 from Invitrogen, Paisley, UK) according to the supplier's instructions.
The WPAR (SEQ ID NO: 18) motif identified from Example 1 was analysed in the context of the 06-34-03 peptide, in order to identify alternatives or improvements to the WPAR (SEQ ID NO: 18) motif. A library was constructed where positions 1, 6, 7, 8, 9 &10 of 06-34-03 were fixed and positions 2, 3, 4 & 5 were randomised (see ‘Randomisation of peptide domains—Library construction’ in Methods above). Selections against human plasma Kallikrein were performed at a variety of stringencies (see Phage selections' in Methods above). All output sequences were identified and analysed for target binding (see ‘Randomisation of peptide domains—Assay of binding of individual clones’ in Methods above). Table 17 lists each unique sequence, its relative abundance in the selection output (frequency), and a rank number according to target binding strength.

[1] = 2nd stringency from High (1st value of cell)
[2] = 3rd stringency from High (2nd value of cell)
[3] = 4th stringency from High (3rd value of cell)
[4] = 5th stringency from High (4th value of cell)

T1 sequence (P03952 20-638): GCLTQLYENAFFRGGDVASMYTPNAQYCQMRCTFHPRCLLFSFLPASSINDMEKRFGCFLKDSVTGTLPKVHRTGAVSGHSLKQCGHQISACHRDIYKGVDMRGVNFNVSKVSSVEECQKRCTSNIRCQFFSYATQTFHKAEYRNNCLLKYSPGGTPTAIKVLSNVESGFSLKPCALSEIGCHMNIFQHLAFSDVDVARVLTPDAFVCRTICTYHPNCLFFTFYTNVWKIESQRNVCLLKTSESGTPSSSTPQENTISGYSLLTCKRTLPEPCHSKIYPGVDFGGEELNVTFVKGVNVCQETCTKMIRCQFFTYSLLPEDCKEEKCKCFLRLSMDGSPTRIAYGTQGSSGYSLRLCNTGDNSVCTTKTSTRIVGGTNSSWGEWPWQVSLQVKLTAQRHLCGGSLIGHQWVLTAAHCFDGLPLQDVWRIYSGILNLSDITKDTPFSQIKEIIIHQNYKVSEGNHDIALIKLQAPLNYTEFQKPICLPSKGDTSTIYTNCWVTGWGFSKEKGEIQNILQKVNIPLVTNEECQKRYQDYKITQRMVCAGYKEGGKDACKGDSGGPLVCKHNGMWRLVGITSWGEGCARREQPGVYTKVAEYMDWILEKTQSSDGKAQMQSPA

SEQ ID NO: 111 (CRWPYHCTHQDLC; Synthetic sequence Kallikrein binder identified from selections using a randomised WPAR motif at positions 2, 3, 4 & 5 within the 06-34-03 sequence of PCT/EP2012/069898 (SEQ ID NO 58))
Frequency (relative abundance in the total selection outputs): 1

SEQ ID NO: 90 (CSYPIRCTHQDLC; Synthetic sequence Kallikrein binder identified from selections using a randomised WPAR motif at positions 2, 3, 4 & 5 within the 06-34-03 sequence of PCT/EP2012/069898 (SEQ ID NO 58))
Frequency (relative abundance in the total selection outputs): 2

SEQ ID NO: 110 (CSQVVGCTHQDLC; Synthetic sequence Kallikrein binder identified from selections using a randomised WPAR motif at positions 2, 3, 4 & 5 within the 06-34-03 sequence of PCT/EP2012/069898 (SEQ ID NO 58))
Frequency (relative abundance in the total selection outputs): 1

SEQ ID NO: 74 (CSWPSRCTHQDLC; Synthetic sequence Kallikrein binder identified from selections using a randomised WPAR motif at positions 2, 3, 4 & 5 within the 06-34-03 sequence of PCT/EP2012/069898 (SEQ ID NO 58))
Frequency (relative abundance in the total selection outputs): 51

SEQ ID NO: 99 (CSWWARCTHQDLC; Synthetic sequence Kallikrein binder identified from selections using a randomised WPAR motif at positions 2, 3, 4 & 5 within the 06-34-03 sequence of PCT/EP2012/069898 (SEQ ID NO 58))
Frequency (relative abundance in the total selection outputs): 1

SEQ ID NO: 91 (CSWSARCTHQDLC; Synthetic sequence Kallikrein binder identified from selections using a randomised WPAR motif at positions 2, 3, 4 & 5 within the 06-34-03 sequence of PCT/EP2012/069898 (SEQ ID NO 58))
Frequency (relative abundance in the total selection outputs): 10

FPFR: phage clone: FPFR at positions 2-5 within the 06-34-03 sequence, TBMB-cyclised (also: TBMB-cyclised within the 06-34-03 context, the cysteines lie outside this motif)
Relative abundance of motif in selection output [1]: 19% | Relative abundance of motif in selection output [2]: 9% | Relative abundance of motif in selection output [3]: 4% | Relative abundance of motif in selection output [4]: 13% | Relative abundance of motif in selection output (stringency High): 7% | Relative abundance of motif in selection output (stringency LOW): 11%

WPSR: phage clone: WPSR at positions 2-5 within the 06-34-03 sequence, TBMB-cyclised (also: TBMB-cyclised within the 06-34-03 context, the cysteines lie outside this motif)
Relative abundance of motif in selection output [1]: 31% | Relative abundance of motif in selection output [2]: 41% | Relative abundance of motif in selection output [3]: 26% | Relative abundance of motif in selection output [4]: 23% | Relative abundance of motif in selection output (stringency High): 34% | Relative abundance of motif in selection output (stringency LOW): 11%

SEQ ID NO: 100 (CSWPYKCTHQDLC; Synthetic sequence Kallikrein binder identified from selections using a randomised WPAR motif at positions 2, 3, 4 & 5 within the 06-34-03 sequence of PCT/EP2012/069898 (SEQ ID NO 58))
Frequency (relative abundance in the total selection outputs): 1

SEQ ID NO: 95 (CSFPWRCTHQDLC; Synthetic sequence Kallikrein binder identified from selections using a randomised WPAR motif at positions 2, 3, 4 & 5 within the 06-34-03 sequence of PCT/EP2012/069898 (SEQ ID NO 58))
Frequency (relative abundance in the total selection outputs): 1

SEQ ID NO: 107 (CSFSYKCTHQDLC; Synthetic sequence Kallikrein binder identified from selections using a randomised WPAR motif at positions 2, 3, 4 & 5 within the 06-34-03 sequence of PCT/EP2012/069898 (SEQ ID NO 58))
Frequency (relative abundance in the total selection outputs): 1

SEQ ID NO: 98 (CSYPYRCTHQDLC; Synthetic sequence Kallikrein binder identified from selections using a randomised WPAR motif at positions 2, 3, 4 & 5 within the 06-34-03 sequence of PCT/EP2012/069898 (SEQ ID NO 58))
Frequency (relative abundance in the total selection outputs): 2

SEQ ID NO: 96 (CSWHARCTHQDLC; Synthetic sequence Kallikrein binder identified from selections using a randomised WPAR motif at positions 2, 3, 4 & 5 within the 06-34-03 sequence of PCT/EP2012/069898 (SEQ ID NO 58))
Frequency (relative abundance in the total selection outputs): 1

SEQ ID NO: 73 (CSWPARCTHQDLC; Synthetic sequence Kallikrein binder identified from selections using a randomised WPAR motif at positions 2, 3, 4 & 5 within the 06-34-03 sequence of PCT/EP2012/069898 (SEQ ID NO 58))
Frequency (relative abundance in the total selection outputs): 24

SEQ ID NO: 103 (CSMPYRCTHQDLC; Synthetic sequence Kallikrein binder identified from selections using a randomised WPAR motif at positions 2, 3, 4 & 5 within the 06-34-03 sequence of PCT/EP2012/069898 (SEQ ID NO 58))
Frequency (relative abundance in the total selection outputs): 2

SEQ ID NO: 112 (CSLFDHCTHQDLC; Synthetic sequence Kallikrein binder identified from selections using a randomised WPAR motif at positions 2, 3, 4 & 5 within the 06-34-03 sequence of PCT/EP2012/069898 (SEQ ID NO 58))
Frequency (relative abundance in the total selection outputs): 1

SEQ ID NO: 80 (CSHPYRCTHQDLC; Synthetic sequence Kallikrein binder identified from selections using a randomised WPAR motif at positions 2, 3, 4 & 5 within the 06-34-03 sequence of PCT/EP2012/069898 (SEQ ID NO 58))
Frequency (relative abundance in the total selection outputs): 2

SEQ ID NO: 113 (CSHRRWCTHQDLC; Synthetic sequence Kallikrein binder identified from selections using a randomised WPAR motif at positions 2, 3, 4 & 5 within the 06-34-03 sequence of PCT/EP2012/069898 (SEQ ID NO 58))
Frequency (relative abundance in the total selection outputs): 1

WPFR: phage clone: WPFR at positions 2-5 within the 06-34-03 sequence, TBMB-cyclised (also: TBMB-cyclised within the 06-34-03 context, the cysteines lie outside this motif)
Relative abundance of motif in selection output [1]: 3% | Relative abundance of motif in selection output [2]: 0% | Relative abundance of motif in selection output [3]: 0% | Relative abundance of motif in selection output [4]: 6% | Relative abundance of motif in selection output (stringency High): 7% | Relative abundance of motif in selection output (stringency LOW): 4%

WSAR: phage clone: WSAR at positions 2-5 within the 06-34-03 sequence, TBMB-cyclised (also: TBMB-cyclised within the 06-34-03 context, the cysteines lie outside this motif)
Relative abundance of motif in selection output [1]: 3% | Relative abundance of motif in selection output [2]: 3% | Relative abundance of motif in selection output [3]: 7% | Relative abundance of motif in selection output [4]: 6% | Relative abundance of motif in selection output (stringency High): 3% | Relative abundance of motif in selection output (stringency LOW): 11%

SEQ ID NO: 104 (CSIPFKCTHQDLC; Synthetic sequence Kallikrein binder identified from selections using a randomised WPAR motif at positions 2, 3, 4 & 5 within the 06-34-03 sequence of PCT/EP2012/069898 (SEQ ID NO 58))
Frequency (relative abundance in the total selection outputs): 1
